Assay results reported in paper PMC8498466.

Substrate: NCCSC[C@H](N)C(=O)O
Assay: cells, lysate or membranes
Details: inside-out membrane vesicles energized with 0.25 mM ATP; 50 mM KCl, 10 mM MgSO4, valinomycin 0.25 uM; Thl 0.5-5 mM; Thl/H+ antiport (export direction)

B1: LysO (LysON-HA) (Escherichia coli K-12) (protein)
chain: MFSGLLIILVPLIVGYLIPLRQQAALKVINQLLSWMVYLILFFMGISLAFLDNLASNLLAILHYSAVSITVILLCNIAALMWLERGLPWRNHHQQEKLPSRIAMALESLKLCGVVVIGFAIGLSGLAFLQHATEASEYTLILLLFLVGIQLRNNGMTLKQIVLNRRGMIVAVVVVVSSLIGGLINAFILDLPINTALAMASGFGWYSLSGILLTESFGPVIGSAAFFNDLARELIAIMLIPGLIRRSRSTALGLCGATSMDFTLPVLQRTGGLDMVPAAIVHGFILSLLVPILIAFFSA
- Km: 1.5 mM
